According to paper PMC10786891, “Massively parallel profiling of RNA-targeting CRISPR-Cas13d”:

T1: EsCas13d, nuclease-dead (Eubacterium siraeum, UniProt B0MS50, R295A;H300A;R849A;H854A)
T1 sequence: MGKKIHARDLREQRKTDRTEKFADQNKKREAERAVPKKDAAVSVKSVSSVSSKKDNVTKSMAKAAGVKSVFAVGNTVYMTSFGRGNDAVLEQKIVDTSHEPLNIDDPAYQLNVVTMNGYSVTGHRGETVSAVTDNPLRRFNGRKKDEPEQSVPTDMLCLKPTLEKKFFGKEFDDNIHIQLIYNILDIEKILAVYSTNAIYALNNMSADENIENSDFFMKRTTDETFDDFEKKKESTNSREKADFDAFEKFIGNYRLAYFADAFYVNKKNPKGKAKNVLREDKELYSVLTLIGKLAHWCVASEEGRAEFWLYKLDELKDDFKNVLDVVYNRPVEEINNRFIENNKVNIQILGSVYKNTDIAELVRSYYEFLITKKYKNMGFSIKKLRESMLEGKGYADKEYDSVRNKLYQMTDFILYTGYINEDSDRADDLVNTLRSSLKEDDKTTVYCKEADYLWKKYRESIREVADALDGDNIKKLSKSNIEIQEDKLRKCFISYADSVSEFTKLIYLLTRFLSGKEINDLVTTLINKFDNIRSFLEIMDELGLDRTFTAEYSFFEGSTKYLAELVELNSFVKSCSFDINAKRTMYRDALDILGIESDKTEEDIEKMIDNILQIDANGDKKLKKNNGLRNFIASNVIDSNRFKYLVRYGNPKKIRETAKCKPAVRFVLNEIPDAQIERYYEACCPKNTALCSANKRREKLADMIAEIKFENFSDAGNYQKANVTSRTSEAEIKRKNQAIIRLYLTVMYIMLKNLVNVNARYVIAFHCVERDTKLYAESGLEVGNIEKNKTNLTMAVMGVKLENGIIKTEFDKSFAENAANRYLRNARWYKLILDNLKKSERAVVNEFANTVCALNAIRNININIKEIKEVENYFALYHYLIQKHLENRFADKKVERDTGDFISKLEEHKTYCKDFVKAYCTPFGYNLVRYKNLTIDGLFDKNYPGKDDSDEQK


target: T1, EsCas13d, nuclease-dead; assay: crRNA (strand 1, pre-loaded); Mg2+; 40 mM Tris-HCl pH 7.5, 150 mM NaCl, 6 mM MgCl2, 1 mM DTT, 0.1% Tween-20, 0.2 mg/ml BSA; 25 C; 10 min per concentration, then washed; conditions: tags: His6-TwinStrep-SUMO cleaved; N-terminal SNAP kept (SNAP-Surface 488); label: 3' end held by stalled T7 RNA polymerase

Binder | Kd
target 1 MT 5'PFS GCG 3'PFS CAC (mixed) RNA 1: CACCCGUGCAAAAAUGCAGGGGUCUAAAACUGAGCGGAUAACCUCUCUAUGG RNA 2: GGGAAUGGAUCCACAUCUACGAAUUCGCGCCAUAGAGAGGUUAUCCGCUCACACAGAUCGGAAGAGCACACGU | ~42 nM
target 1 MT 5'PFS CUA 3'PFS AUA (mixed) RNA 1: CACCCGUGCAAAAAUGCAGGGGUCUAAAACUGAGCGGAUAACCUCUCUAUGG RNA 2: GGGAAUGGAUCCACAUCUACGAAUUCCUACCAUAGAGAGGUUAUCCGCUCAAUAAGAUCGGAAGAGCACACGU | 7.15 ± 1.5 nM
target 1 MT 5'PFS GCG 3'PFS ACG (mixed) RNA 1: CACCCGUGCAAAAAUGCAGGGGUCUAAAACUGAGCGGAUAACCUCUCUAUGG RNA 2: GGGAAUGGAUCCACAUCUACGAAUUCGCGCCAUAGAGAGGUUAUCCGCUCAACGAGAUCGGAAGAGCACACGU | 49.5 ± 10 nM
target 1 MT 5'PFS GCC 3'PFS CCG (mixed) RNA 1: CACCCGUGCAAAAAUGCAGGGGUCUAAAACUGAGCGGAUAACCUCUCUAUGG RNA 2: GGGAAUGGAUCCACAUCUACGAAUUCGCCCCAUAGAGAGGUUAUCCGCUCACCGAGAUCGGAAGAGCACACGU | 12.9 ± 3.15 nM
target 1 MT 5'PFS GCC 3'PFS AAA (mixed) RNA 1: CACCCGUGCAAAAAUGCAGGGGUCUAAAACUGAGCGGAUAACCUCUCUAUGG RNA 2: GGGAAUGGAUCCACAUCUACGAAUUCGCCCCAUAGAGAGGUUAUCCGCUCAAAAAGAUCGGAAGAGCACACGU | 59.5 ± 19 nM
target 1 MT 5'PFS CCA 3'PFS ACG (mixed) RNA 1: CACCCGUGCAAAAAUGCAGGGGUCUAAAACUGAGCGGAUAACCUCUCUAUGG RNA 2: GGGAAUGGAUCCACAUCUACGAAUUCCCACCAUAGAGAGGUUAUCCGCUCAACGAGAUCGGAAGAGCACACGU | 3.95 ± 1.6 nM
target 1 U11G,G12U (mixed) RNA 1: CACCCGUGCAAAAAUGCAGGGGUCUAAAACUGAGCGGAUAACCUCUCUAUGG RNA 2: GGGAAUGGAUCCACAUCUACGAAUUCGUACCAUAGAGAGUGUAUCCGCUCACCGAGAUCGGAAGAGCACACGU | ~50 nM
target 1 MT 5'PFS GCC 3'PFS AAU (mixed) RNA 1: CACCCGUGCAAAAAUGCAGGGGUCUAAAACUGAGCGGAUAACCUCUCUAUGG RNA 2: GGGAAUGGAUCCACAUCUACGAAUUCGCCCCAUAGAGAGGUUAUCCGCUCAAAUAGAUCGGAAGAGCACACGU | ~27 nM
target 1 MT 5'PFS CCA 3'PFS ACU (mixed) RNA 1: CACCCGUGCAAAAAUGCAGGGGUCUAAAACUGAGCGGAUAACCUCUCUAUGG RNA 2: GGGAAUGGAUCCACAUCUACGAAUUCCCACCAUAGAGAGGUUAUCCGCUCAACUAGAUCGGAAGAGCACACGU | 14 ± 5.5 nM
target 1 MT 5'PFS CCG 3'PFS CUG (mixed) RNA 1: CACCCGUGCAAAAAUGCAGGGGUCUAAAACUGAGCGGAUAACCUCUCUAUGG RNA 2: GGGAAUGGAUCCACAUCUACGAAUUCCCGCCAUAGAGAGGUUAUCCGCUCACUGAGAUCGGAAGAGCACACGU | 1.95 ± 0.465 nM
target 1 MT 5'PFS CUA 3'PFS AUU (mixed) RNA 1: CACCCGUGCAAAAAUGCAGGGGUCUAAAACUGAGCGGAUAACCUCUCUAUGG RNA 2: GGGAAUGGAUCCACAUCUACGAAUUCCUACCAUAGAGAGGUUAUCCGCUCAAUUAGAUCGGAAGAGCACACGU | 6.05 ± 1.65 nM
target 1 MT 5'PFS AAG 3'PFS AUG (mixed) RNA 1: CACCCGUGCAAAAAUGCAGGGGUCUAAAACUGAGCGGAUAACCUCUCUAUGG RNA 2: GGGAAUGGAUCCACAUCUACGAAUUCAAGCCAUAGAGAGGUUAUCCGCUCAAUGAGAUCGGAAGAGCACACGU | 33 ± 8.5 nM
target 1 MT 5'PFS GCC 3'PFS AAG (mixed) RNA 1: CACCCGUGCAAAAAUGCAGGGGUCUAAAACUGAGCGGAUAACCUCUCUAUGG RNA 2: GGGAAUGGAUCCACAUCUACGAAUUCGCCCCAUAGAGAGGUUAUCCGCUCAAAGAGAUCGGAAGAGCACACGU | 28 ± 6.5 nM
target 1 MT 5'PFS GUC 3'PFS CGU (mixed) RNA 1: CACCCGUGCAAAAAUGCAGGGGUCUAAAACUGAGCGGAUAACCUCUCUAUGG RNA 2: GGGAAUGGAUCCACAUCUACGAAUUCGUCCCAUAGAGAGGUUAUCCGCUCACGUAGAUCGGAAGAGCACACGU | 13.2 ± 1.9 nM
target 1 MT 5'PFS CUA 3'PFS AUC (mixed) RNA 1: CACCCGUGCAAAAAUGCAGGGGUCUAAAACUGAGCGGAUAACCUCUCUAUGG RNA 2: GGGAAUGGAUCCACAUCUACGAAUUCCUACCAUAGAGAGGUUAUCCGCUCAAUCAGAUCGGAAGAGCACACGU | 14.2 ± 3.1 nM
target 1 MT 5'PFS ACA 3'PFS CAU (mixed) RNA 1: CACCCGUGCAAAAAUGCAGGGGUCUAAAACUGAGCGGAUAACCUCUCUAUGG RNA 2: GGGAAUGGAUCCACAUCUACGAAUUCACACCAUAGAGAGGUUAUCCGCUCACAUAGAUCGGAAGAGCACACGU | ~20 nM
target 1 MT 5'PFS CUA 3'PFS AUG (mixed) RNA 1: CACCCGUGCAAAAAUGCAGGGGUCUAAAACUGAGCGGAUAACCUCUCUAUGG RNA 2: GGGAAUGGAUCCACAUCUACGAAUUCCUACCAUAGAGAGGUUAUCCGCUCAAUGAGAUCGGAAGAGCACACGU | 37 ± 10 nM
target 1 MT 5'PFS GCG 3'PFS ACU (mixed) RNA 1: CACCCGUGCAAAAAUGCAGGGGUCUAAAACUGAGCGGAUAACCUCUCUAUGG RNA 2: GGGAAUGGAUCCACAUCUACGAAUUCGCGCCAUAGAGAGGUUAUCCGCUCAACUAGAUCGGAAGAGCACACGU | 18.2 ± 3.9 nM
target 1 MT 5'PFS AAG 3'PFS AUC (mixed) RNA 1: CACCCGUGCAAAAAUGCAGGGGUCUAAAACUGAGCGGAUAACCUCUCUAUGG RNA 2: GGGAAUGGAUCCACAUCUACGAAUUCAAGCCAUAGAGAGGUUAUCCGCUCAAUCAGAUCGGAAGAGCACACGU | 26.5 ± 10 nM
target 1 MT 5'PFS AAG 3'PFS AUA (mixed) RNA 1: CACCCGUGCAAAAAUGCAGGGGUCUAAAACUGAGCGGAUAACCUCUCUAUGG RNA 2: GGGAAUGGAUCCACAUCUACGAAUUCAAGCCAUAGAGAGGUUAUCCGCUCAAUAAGAUCGGAAGAGCACACGU | 26.6 ± 7.15 nM
target 1 MT 5'PFS CCG 3'PFS CUA (mixed) RNA 1: CACCCGUGCAAAAAUGCAGGGGUCUAAAACUGAGCGGAUAACCUCUCUAUGG RNA 2: GGGAAUGGAUCCACAUCUACGAAUUCCCGCCAUAGAGAGGUUAUCCGCUCACUAAGAUCGGAAGAGCACACGU | 7.9 ± 2.9 nM
target 1 MT 5'PFS GCC 3'PFS AAC (mixed) RNA 1: CACCCGUGCAAAAAUGCAGGGGUCUAAAACUGAGCGGAUAACCUCUCUAUGG RNA 2: GGGAAUGGAUCCACAUCUACGAAUUCGCCCCAUAGAGAGGUUAUCCGCUCAAACAGAUCGGAAGAGCACACGU | 23 ± 7.5 nM
target 1 insG 3' of 18,insC 3' of 13 (mixed) RNA 1: CACCCGUGCAAAAAUGCAGGGGUCUAAAACUGAGCGGAUAACCUCUCUAUGG RNA 2: GGGAAUGGAUCCACAUCUACGAAUUCGUACCAUAGGAGAGCGUUAUCCGCUCACCGAGAUCGGAAGAGCACACGU | 70 ± 24 nM
target 1 MT 5'PFS CCG 3'PFS CUC (mixed) RNA 1: CACCCGUGCAAAAAUGCAGGGGUCUAAAACUGAGCGGAUAACCUCUCUAUGG RNA 2: GGGAAUGGAUCCACAUCUACGAAUUCCCGCCAUAGAGAGGUUAUCCGCUCACUCAGAUCGGAAGAGCACACGU | 3.15 ± 1 nM
